# Source: patent publication US20160108098A1 (GlaxoSmithKline, published 2016)
# Where no end group is shown, it is not given here.
# T1: human Neuropeptide Y receptor type 2 (human, UniProt P49146 1-381)
# T1 sequence (looked up): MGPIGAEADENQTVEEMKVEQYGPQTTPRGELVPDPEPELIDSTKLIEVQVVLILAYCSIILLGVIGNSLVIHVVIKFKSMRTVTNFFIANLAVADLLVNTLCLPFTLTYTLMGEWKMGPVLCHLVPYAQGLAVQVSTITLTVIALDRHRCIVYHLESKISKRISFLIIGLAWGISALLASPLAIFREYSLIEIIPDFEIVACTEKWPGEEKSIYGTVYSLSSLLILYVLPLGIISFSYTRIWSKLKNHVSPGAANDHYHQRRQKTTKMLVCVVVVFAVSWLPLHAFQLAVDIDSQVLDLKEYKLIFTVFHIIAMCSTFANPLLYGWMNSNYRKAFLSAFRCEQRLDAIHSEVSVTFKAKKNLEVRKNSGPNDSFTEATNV
# B1: Example 2 (peptide)
# peptide: PKPEAPGKDASPEELNRYYASLRKYLNWLTRQRY-NH2
# B2: Example 25 (peptide)
# peptide: PKPEHPGKDASPEEWNRYYASLRKYLNWVTRQRY-NH2
# B3: Example 31 (peptide)
# peptide: PKPEAPGKDASPEELNRYYASLRKYLNWVTRQRY-NH2
# B4: Peptide 1 (peptide)
# peptide: PKPEAPGCDASPEEWNRYYASLRKYLNWVTRQNY-NH2
# B5: Peptide 2 (peptide)
# peptide: IKPEAPLSKQLEEEAVRYYASLRHYLNLVTRQRY-NH2
# B6: Peptide 3 (peptide)
# peptide: PKPEAPGEDASPKEWNRYYASLRKYLNWVTRQRY-NH2
# B7: Peptide 8 (peptide)
# peptide: IKPPYPGCDASPEEQNKYYASLRAYWNLVTRQRY-NH2
# B8: Peptide 14 (peptide)
# peptide: PKPEAPGCDASPEEWNRYYASLRKYLNWVTRQHY-NH2
# B9: Peptide 15 (peptide)
# peptide: PKPVAPGCDASPAELNRQYSDLRNYWNLVTRQRY-NH2
# B10: Peptide 21 (peptide)
# peptide: PKPEAPLSKQLEEEAVRYYASLRHYLNLVTRQRY-NH2
# Biological target: T1, human Neuropeptide Y receptor type 2
# Experiment: cell-based or functional assay
row,Binder,hNPY Y2 pEC50 [pEC50]
1,B1,9.8
2,B2,9.6
3,B3,9.8

# Biological target: T1, human Neuropeptide Y receptor type 2
# Experiment: cell-based or functional assay
# Remark: another data set of the same source
row,Binder,hNPY Y2 pEC50 [pEC50]
1,B4,7.9
2,B5,8.6
3,B6,9.2
4,B7,9.3
5,B8,8.2
6,B9,8.9
7,B10,8.7
